Experimental data from PMC9770967, “Native holdup (nHU) to measure binding affinities from cell extracts” (Science Advances, 2022).

B1: WASH2: component of the WASH complex (protein)
chain: MTPVRMQHSLAGQTYAVPLIQPDLRREEAVQQMADALQYLQKVSGDIFSRISQQVEQSRSQVQAIGEKVSLAQAKIEKIKGSKKAIKVFSSAKYPAPERLQEYGSIFTGAQDPGLQRRPRHRIQSKHRPLDERALQEKLKDFPVCVSTKPEPEDDAEEGLGGLPSNISSVSSLLLFNTTENLYKKYVFLDPLAGAVTKTHVMLGAETEEKLFDAPLSISKREQLEQQVPENYFYVPDLGQVPEIDVPSYLPDLPGIANDLMYIADLGPGIAPSAPGTIPELPTFHTEVAEPLKVDLQDGVLTPPPPPPPPPPAPEVLASAPPLPPSTAAPVGQGARQDDSSSSASPSVQGAPREVVDPSGGRATLLESIRQAGGIGKAKLRSMKERKLEKKKQKEQEQVRATSQGGHLMSDLFNKLVMRRKGISGKGPGAGEGPGGAFARVSDSIPPLPPPQQPQAEEDEDDWES
B2: Strumpellin: component of the WASH complex (protein, UniProt Q12768 1-1159, looked up)
WASH complex subunit 5: MLDFLAENNLCGQAILRIVSCGNAIIAELLRLSEFIPAVFRLKDRADQQKYGDIIFDFSYFKGPELWESKLDAKPELQDLDEEFRENNIEIVTRFYLAFQSVHKYIVDLNRYLDDLNEGVYIQQTLETVLLNEDGKQLLCEALYLYGVMLLVIDQKIEGEVRERMLVSYYRYSAARSSADSNMDDICKLLRSTGYSSQPGAKRPSNYPESYFQRVPINESFISMVIGRLRSDDIYNQVSAYPLPEHRSTALANQAAMLYVILYFEPSILHTHQAKMREIVDKYFPDNWVISIYMGITVNLVDAWEPYKAAKTALNNTLDLSNVREQASRYATVSERVHAQVQQFLKEGYLREEMVLDNIPKLLNCLRDCNVAIRWLMLHTADSACDPNNKRLRQIKDQILTDSRYNPRILFQLLLDTAQFEFILKEMFKQMLSEKQTKWEHYKKEGSERMTELADVFSGVKPLTRVEKNENLQAWFREISKQILSLNYDDSTAAGRKTVQLIQALEEVQEFHQLESNLQVCQFLADTRKFLHQMIRTINIKEEVLITMQIVGDLSFAWQLIDSFTSIMQESIRVNPSMVTKLRATFLKLASALDLPLLRINQANSPDLLSVSQYYSGELVSYVRKVLQIIPESMFTSLLKIIKLQTHDIIEVPTRLDKDKLRDYAQLGPRYEVAKLTHAISIFTEGILMMKTTLVGIIKVDPKQLLEDGIRKELVKRVAFALHRGLIFNPRAKPSELMPKLKELGATMDGFHRSFEYIQDYVNIYGLKIWQEEVSRIINYNVEQECNNFLRTKIQDWQSMYQSTHIPIPKFTPVDESVTFIGRLCREILRITDPKMTCHIDQLNTWYDMKTHQEVTSSRLFSEIQTTLGTFGLNGLDRLLCFMIVKELQNFLSMFQKIILRDRTVQDTLKTLMNAVSPLKSIVANSNKIYFSAIAKTQKIWTAYLEAIMKVGQMQILRQQIANELNYSCRFDSKHLAAALENLNKALLADIEAHYQDPSLPYPKEDNTLLYEITAYLEAAGIHNPLNKIYITTKRLPYFPIVNFLFLIAQLPKLQYNKNLGMVCRKPTDPVDWPPLVLGLLTLLKQFHSRYTEQFLALIGQFICSTVEQCTSQKIPEIPADVVGALLFLEDYVRYTKLPRRVAEAHVPNFIFDEFRTVL
B3: FUS (protein, UniProt P35637 1-526, looked up)
RNA-binding protein FUS: MASNDYTQQATQSYGAYPTQPGQGYSQQSSQPYGQQSYSGYSQSTDTSGYGQSSYSSYGQSQNTGYGTQSTPQGYGSTGGYGSSQSSQSSYGQQSSYPGYGQQPAPSSTSGSYGSSSQSSSYGQPQSGSYSQQPSYGGQQQSYGQQQSYNPPQGYGQQNQYNSSSGGGGGGGGGGNYGQDQSSMSSGGGSGGGYGNQDQSGGGGSGGYGQQDRGGRGRGGSGGGGGGGGGGYNRSSGGYEPRGRGGGRGGRGGMGGSDRGGFNKFGGPRDQGSRHDSEQDNSDNNTIFVQGLGENVTIESVADYFKQIGIIKTNKKTGQPMINLYTDRETGKLKGEATVSFDDPPSAKAAIDWFDGKEFSGNPIKVSFATRRADFNRGGGNGRGGRGRGGPMGRGGYGGGGSGGGGRGGFPSGGGGGGGQQRAGDWKCPNPTCENMNFSWRNECNQCKAPKPDGPGGGPGGSHMGGNYGDDRRGGRGGYDRGGYRGRGGDRGGFRGGRGGGDRGGFGPGKMDSRGEHRQDRRERPY
B4: DNAJC16 (protein, UniProt Q9Y2G8 26-782, looked up)
DnaJ homolog subfamily C …: LDFDPYRVLGVSRTASQADIKKAYKKLAREWHPDKNKDPGAEDKFIQISKAYEILSNEEKRSNYDQYGDAGENQGYQKQQQQREYRFRHFHENFYFDESFFHFPFNSERRDSIDEKYLLHFSHYVNEVVPDSFKKPYLIKITSDWCFSCIHIEPVWKEVIQELEELGVGIGVVHAGYERRLAHHLGAHSTPSILGIINGKISFFHNAVVRENLRQFVESLLPGNLVEKVTNKNYVRFLSGWQQENKPHVLLFDQTPIVPLLYKLTAFAYKDYLSFGYVYVGLRGTEEMTRRYNINIYAPTLLVFKEHINRPADVIQARGMKKQIIDDFITRNKYLLAARLTSQKLFHELCPVKRSHRQRKYCVVLLTAETTKLSKPFEAFLSFALANTQDTVRFVHVYSNRQQEFADTLLPDSEAFQGKSAVSILERRNTAGRVVYKTLEDPWIGSESDKFILLGYLDQLRKDPALLSSEAVLPDLTDELAPVFLLRWFYSASDYISDCWDSIFHNNWREMMPLLSLIFSALFILFGTVIVQAFSDSNDERESSPPEKEEAQEKTGKTEPSFTKENSSKIPKKGFVEVTELTDVTYTSNLVRLRPGHMNVVLILSNSTKTSLLQKFALEVYTFTGSSCLHFSFLSLDKHREWLEYLLEFAQDAAPIPNQYDKHFMERDYTGYVLALNGHKKYFCLFKPQKTVEEEEAIGSCSDVDSSLYLGESRGKPSCGLGSRPIKGKLSKLSLWMERLLEGSLQRFYIPSWPELD

Experiments:
Format in all cases: binding, human
[1] = target: full-length SNX27; experiment: nHU-MS, recombinant full-length SNX27 bait, total Jurkat extracts; settings: apparent, Fig. 4D, n = 6
Experimental: The empty His6-AviTag-MBP-TEV vector was used to produce biotinylated MBP for control experiments. Proteins were coexpressed with BirA biotin ligase (PET21a-BirA, Addgene, no. 20857) in Escherichia coli BL21(DE3) cells. At isopropyl-β-D-thiogalactopyranoside (IPTG) induction (1 mM IPTG at 18°C overnight), 50 μM biotin was added to the media. Harvested cells were lysed in a buffer containing 50 mM tris (pH 7.5), 150 to 300 mM NaCl, 50 μM biotin, 2 mM β-mercaptoethanol, cOmplete EDTA-free protease inhibitor cocktail (Roche, Basel, Switzerland), 1% Triton X-100, and trace amount of deoxyribonuclease, ribonuclease, and lysozyme. Lysates were frozen at −20°C before further purification steps. Lysates were sonicated and centrifuged for clarification. Expressed proteins were captured on in-house prepacked Ni-IDA (Protino Ni-IDA Resin, Macherey-Nagel, Duren, Germany) columns and were washed with at least 10 column volumes of cold wash buffer [50 mM tris (pH 7.5), 150 mM NaCl, and 2 mM β-mercaptoethanol] before elution with 250 mM imidazole. The Ni elution was collected directly on a preequilibrated amylose column (amylose high flow resin, New England Biolabs, Ipswich, MA). Amylose column was washed with 5 column volumes of cold wash buffer before fractionated elution in a buffer containing 25 mM Hepes (pH 7.5), 150 mM NaCl, 1 mM TCEP, 10% glycerol, 5 mM maltose, and cOmplete EDTA-free protease inhibitor cocktail. The concentration of proteins was determined by their ultraviolet absorption at 280 nm before aliquots were snap-frozen in liquid nitrogen and stored at −80°C.
(§1) For saturating streptavidin resin with biotinylated peptides or biotin, 50 μl of streptavidin resin was mixed with biotin or peptide at 40 to 60 μM concentration in 6 to 6.5 resin volume for 60 min. To saturate streptavidin resin with biotinylated proteins, 50 μl of streptavidin resin (Streptavidin Sepharose High Performance, Cytiva) was mixed with biotinylated MBP or MBP-PDZ at 40 to 50 μM concentration in 20× resin volume for 60 min. After saturation, resins were washed a single time [10 resin volume, holdup buffer: 50 mM tris (pH 7.5), 300 mM NaCl, and 1 mM TCEP, 0.22-μm filtered] and were depleted with biotin (10 resin volume, 10 min, holdup buffer supplemented with 100 μM biotin). Last, resins were washed two times (10 resin volume, holdup buffer).
(§2) For single-point nHU experiments carried out at ~10 μM bait concentration, 50 μl of saturated streptavidin resin was mixed with 200 μl of cell lysate (2 mg/ml). Titration experiments were carried out by mixing control and bait-saturated resin and keeping the total resin volume constant; e.g., ~5 μM bait concentration can be achieved by mixing 25 μl of bait-saturated streptavidin resin with 25 μl of control resin and 200 μl of cell lysate (2 mg/ml). Control and bait-saturated resins were prepared in larger amounts, and a serial dilution was prepared with these presaturated resins to achieve different resin ratios.
Unless specified elswhere, the nHU mixture was incubated at 4°C for 2 hours. After the incubation ended, the resin was separated from the supernatant by a brief centrifugation (15 s, 2000 g). Then, half of the supernatant was removed by pipetting without any delay to avoid any resin contamination; e.g., 100 μl of supernatant is collected if 200 μl of cell lysate was used as analyte. Alternatively, the supernatant can be centrifuged an additional time to clarify it further, removing any possible resin contamination. […]

[2] = target: SCRIB_PDZ_1; experiment: nHU-MS, SCRIB_PDZ_1 bait, total Jurkat extracts (Exploris MS); settings: SCRIB_PDZ_1&Jurkat (Exploris)
Description: (§3) To further establish the repeatability and robustness of the nHU-MS assay, we repeated the experiments using a different mass spectrometer and six different PDZ domain baits taken from SCRIB (PDZ_1 and PDZ_2), discs large MAGUK scaffold protein 1 (DLG1, PDZ_1, and PDZ_2), Tax1 binding protein 3 (TAX1BP3), and SNX27 (fig. S3B and table S1). […] Of the studied baits, the PDZ domain of SNX27 turned out to be the most promiscuous with 103 statistically significant interaction partners (while 180 SNX27 binding partners were identified in total on the basis of the three independent nHU-MS experiments).
as §1, §2
(§4) Unless specified elswhere, the nHU mixture was incubated at 4°C for 2 hours. After the incubation ended, the resin was separated from the supernatant by a brief centrifugation (15 s, 2000 g). Then, half of the supernatant was removed by pipetting without any delay to avoid any resin contamination; e.g., 100 μl of supernatant is collected if 200 μl of cell lysate was used as analyte. Alternatively, the supernatant can be centrifuged an additional time to clarify it further, removing any possible resin contamination. In principle, the separation of the supernatant should be as fast as possible since any delay can perturb the equilibrium. […] Alternatively, the resin can be separated from the supernatant using filter plates (e.g., various products of Millipore, Burlington, MA) or spin columns (e.g., Pierce spin cups—cellulose acetate filter from Thermo Fisher Scientific, Waltham, MA) to achieve faster separation.
The nHU samples were precipitated with trichloroacetic acid (TCA) 20% overnight at 4°C and centrifuged at 14,000 rpm for 10 min at 4°C. The protein pellets were washed twice with 1 ml of cold acetone and air-dried. The protein extracts were solubilized in 8 M urea, reduced with 5 mM TCEP for 30 min, and alkylated with 10 mM iodoacetamide for 30 min in the dark. Double digestion was performed at 37°C with 500 ng of endoproteinase Lys-C (Wako, Richmond, USA) for 4 hours, followed by fourfold dilution and an overnight digestion with 500 ng of trypsin (Promega, Charbonnieres les Bains, France). Peptide mixtures were then desalted on a C18 spin-column and dried on a speed vacuum.
(§5) Samples were analyzed using an Ultimate 3000 nano-RSLC coupled in line via a nano-electrospray ionization source, with an LTQ-Orbitrap ELITE mass spectrometer (Thermo Fisher Scientific, San Jose, CA) or with the Orbitrap Exploris 480 mass spectrometer (Thermo Fisher Scientific, Bremen, Germany) equipped with a high field asymmetric ion mobility spectrometry (FAIMS) module. […]

[3] = target: SCRIB_PDZ_2; experiment: nHU-MS, SCRIB_PDZ_2 bait, total Jurkat extracts (Exploris MS); settings: SCRIB_PDZ_2&Jurkat (Exploris)
Description: as §3, §1, §2, §4
(§6) The nHU samples were precipitated with trichloroacetic acid (TCA) 20% overnight at 4°C and centrifuged at 14,000 rpm for 10 min at 4°C. The protein pellets were washed twice with 1 ml of cold acetone and air-dried. […]
as §5

[4] = target: SNX27_PDZ; experiment: nHU-MS, SNX27_PDZ bait, total Jurkat extracts, series 2 (Exploris MS); settings: SNX27_PDZ&Jurkat (Exploris)
Description: as §3, §1, §2, §4, §6, §5

Molecule	pKapp [1]	pKapp (nHU-MS) [2]	pKapp (nHU-MS) [3]	pKapp (nHU-MS) [4]
B1	5.47			
B2	4.94			
B3		4.571	4.538	
B4		4.6996		4.859
